Assay results published in paper PMC12096946, “Structural analysis of genetic variants of the human tumor suppressor PALB2 coiled-coil domain” (Bioscience Reports, 2025).
Changes are numbered by the printed parent chain. In names and notes the source's numbering stands.

B1: human PALB2 coiled-coil domain (PALB2cc, residues 6-42) (domain or fragment, UniProt Q86YC2 6-42, looked up)
chain: GKPLSCEEKEKLKEKLAFLKREYSKTLARLQRAQRAE
notes: PALB2 (partner and localizer of BRCA2), human, N-terminal coiled-coil domain, residues 6-42 of the 1186-amino-acid protein; A methionine was introduced before the domain for CNBr cleavage of the His-GB1 tag; The NMR sample was uniformly 13C,15N labelled; The methods of the CD experiments say that PALB2cc peptides were synthesized; also called wt-PALB2cc; source: E. coli BL21-DE3, purified …
B2: S10E, S29E-PALB2cc (peptide, UniProt Q86YC2 6-42, looked up)
chain: B1 chain with S5E, S24E
notes: also called S10E, S29E phosphomimetic PALB2 coiled-coil domain; source: synthetic peptide (Lifetein technologies)

Target: the molecule itself
Experiment: SEC; analytical size exclusion chromatography, Superdex75 column; 50 mM Na2HPO4, 150 mM NaCl, 5 mM DTT, pH 6.5; mass from molecular weight standards

Protein | stoichiometry N | binding result
B1 | 2 | 
B2 |  | binds
